From patent US20200308299A1 (NATIONAL UNIVERSITY CORPORATION KOCHI UNIVERSITY, published 2020)

T1: recombinant human Glypican-1 protein (R&D Systems, CF, 4519-GP-050) (human, UniProt P35052 24-530)
T1 construct: Bought protein; also called recombinant human GPC1
T1 sequence: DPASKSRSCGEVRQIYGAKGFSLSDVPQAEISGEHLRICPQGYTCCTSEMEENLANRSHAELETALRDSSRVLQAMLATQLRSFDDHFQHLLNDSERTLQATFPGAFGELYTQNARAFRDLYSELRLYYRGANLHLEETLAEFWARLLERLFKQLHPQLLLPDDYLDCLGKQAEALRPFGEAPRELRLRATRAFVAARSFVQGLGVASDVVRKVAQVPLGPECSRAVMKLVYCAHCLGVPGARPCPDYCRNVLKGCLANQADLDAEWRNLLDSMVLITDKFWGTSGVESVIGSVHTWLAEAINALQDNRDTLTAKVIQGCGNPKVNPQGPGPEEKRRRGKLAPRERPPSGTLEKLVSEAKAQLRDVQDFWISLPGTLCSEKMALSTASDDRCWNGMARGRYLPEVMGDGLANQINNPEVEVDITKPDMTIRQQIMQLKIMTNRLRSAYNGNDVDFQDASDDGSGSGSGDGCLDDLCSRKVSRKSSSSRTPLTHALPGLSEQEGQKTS

T2: human Glypican-1 (human, UniProt P35052 24-530, limits assumed)
T2 construct: also called human GPC1
T2 sequence: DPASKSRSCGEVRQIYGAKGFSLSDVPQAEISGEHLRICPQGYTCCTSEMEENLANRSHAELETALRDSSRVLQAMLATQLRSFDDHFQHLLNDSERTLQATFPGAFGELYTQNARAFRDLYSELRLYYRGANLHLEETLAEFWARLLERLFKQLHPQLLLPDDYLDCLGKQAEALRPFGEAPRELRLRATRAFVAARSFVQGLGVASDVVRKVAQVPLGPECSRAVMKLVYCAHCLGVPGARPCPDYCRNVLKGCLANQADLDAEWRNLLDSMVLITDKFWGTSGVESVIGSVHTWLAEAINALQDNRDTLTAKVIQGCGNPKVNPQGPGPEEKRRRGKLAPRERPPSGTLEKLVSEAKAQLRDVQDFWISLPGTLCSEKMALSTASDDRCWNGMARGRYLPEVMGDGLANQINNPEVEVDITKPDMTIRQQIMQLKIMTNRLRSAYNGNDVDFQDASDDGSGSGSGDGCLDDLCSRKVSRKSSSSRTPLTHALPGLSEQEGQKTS


Columns and labels:
[1] = target: T1, recombinant human Glypican-1 protein …; assay: ELISA on plate-coated recombinant human GPC1
human Glypican-1 = target: T2, human Glypican-1; assay: phage scFv panning, ELISA on immobilised human GPC1, cell-ELISA and flow cytometry on human GPC1 transformants and TE14 (Example 1)

Binder | binding result [1] | binding result (human Glypican-1)
anti-Glypican-1 antibody clone K090-01a033 (antibody, mouse IgG2a, kappa, V domains shown, Selected as scFv on phage; also called clone 01a033; anti-GPC1 monoclonal antibody (01a033)) VH: QVQLKQSGPELVKPGASVKISCKASGYSFTGYYMHWVKQSPEKSLEWIGEINPSTGDTTYNQKFKAKATLTVDKSSSTAYMQLKSLTSEDSAVYYCAREKRDDGVFAYWGQGTLVTVSS VL: DIVMSQSPKSMSMSVGERVALSCKASENVGTYVSWYQQKPEQSPKLLIYGASNRYTGVPDRFTGSGSATDFTLTISSVQAEDLADYYCGQSYSYPLTFGAGTKLELKR | binds | binds
anti-Glypican-1 antibody clone K090-01a002 (antibody, mouse IgG2a, kappa, V domains shown, Selected as scFv on phage) VH: EVQLQQSGPELVKPGASVKISCKSSGYSFTRYYMHWVKHSPEKSLEWIGEINPSTGDTTYNQKFKAKATLTVDKSSSTAYMQLKSLTSEDSAVYYCAREKRDDGVLAYWGQGTLVTVSS VL: DIQMTQSPKFLPVSAGDRVTMTCKASQSVGNNVAWYQQKPGQSPKLLIYYASNRYTGVPDRFTGSGSGTDFTFTISSVQVEDLAVYFCQQHYSSPLTFGAGTKLELKR | – | binds
anti-Glypican-1 antibody clone K090-01a021 (antibody, mouse IgG2a, kappa, V domains shown, Selected as scFv on phage) VH: QVQLKQSGPELVKPGASVKISCKASGYSFTGYYMHWVKQSPEKSLEWIGEINPSTGGTTYNQKFKAKATLTVDKSSSTAYMQLKSLTSEDSAVYYCAREKRDDGVFAYWGQGTLVTVSS VL: SIVMTQTPKFLPVSAGDRVTMTCKASQSVGNNVAWYQQKPGQSPKLLIYYASNRYTGVPDRFTGSGSGTDFPFTISSVQVEDLAVYFCQQHYSSPLTFGAGTKLELKR | – | binds
anti-Glypican-1 antibody clone K090-02a006 (antibody, mouse IgG2a, kappa, V domains shown, Selected as scFv on phage) VH: EVQLQQSGAELVKPGASVKISCRASGYSFTGYNMNWVKQSHGKSLEWIGNINPYYGTTNYNQKFKGKATLTVDKSSSTAYMQLNSLTSEDSAVYYCASDGYYGAMDYWGQGTSVTVSS VL: DIKMTQSPKFMSTSVGDRVSVTCKASQNVGTYVAWYQQKPGQSPKALIYSASYRYSGVPDRFTGTGSGTDFTLTISNVQSEDLAEYFCQQYYNYPLTFGAGTKLELKR | – | binds
anti-Glypican-1 antibody clone K090-02a002 (antibody, mouse IgG2a, kappa, V domains shown, Selected as scFv on phage) VH: EVKLVESGGGLVKPGGSRKLSCAASGFTFSDYGMHWVRQAPEKGLEWVAYISSGSSTIYYADTVKGRFTISRDNAKNTLFLQMTSLRSEDTAMYYCARHSYYSYDVGGDYVMDYWGQGTSVTVSS VL: DIVMSQSPKFMSTSVGDRVSITCKASQDVGTAVAWYQQKPGQSPKLLIYWASTRHTGVPDRFTGSGSGTDFTLTISNVQSEDLADYFCQQYSSYPLTFGAGTKLEIKR | – | binds
anti-Glypican-1 antibody clone K090-02a010 (antibody, mouse IgG2a, kappa, V domains shown, Selected as scFv on phage) VH: EVKLVESGGGLVKPGGSRKLSCAASGFTFSDYGMHWVRQAPEKGLEWVAYINSGSSTIYYADTVKGRFTISRDNAKNTLFLQMTSLRSGDTAMYYCARHSYYSYDVGGDYVMDYWGQGTSVTVSS VL: DIVLTQSPKFMSTSVGDRVSITCKASQDVGTAVAWYQQKPGQSPKLLIYWASTRHTGVPDRFTGSGSGTDFTLTISNVQSEDLADYFCQQYSSYPLTFGAGTKLEIKR | – | binds
anti-Glypican-1 antibody clone K090-01a009 (antibody, mouse IgG2a, kappa, V domains shown, Selected as scFv on phage) VH: EVQLQQSGPELVKPGASVEISCKASGYSFTGYFMNWVKQSQGKSLEWIGRINPDNGDIFYNQKFKGKATLTVDKSSSTAHMELRSLTSEDSAVYYCARSWNWYFDVWGAGTTVTVSS VL: DIQMTQSPASLSASVGETVTITCRASENIYSYLAWYQQKQGKSPQLLVYNAKTLAEGVPSRFSGSGSGTQFSLKINSLQPEDFGSYYCQHHYGTPYTFGSGTKLEIKR | – | binds
anti-Glypican-1 antibody clone K090-02a022 (antibody, mouse IgG2a, kappa, V domains shown, Selected as scFv on phage) VH: QVQLQQPGPELVKPGASVKMSCKASGYTFTDYYMNWVKQSHGKSLEWIGRVNPSNGGTSYNQKFKGKATLTVDKSLSTAYMQLNSLTSEDSAVYYCARSGENYYAMDYWGQGTSVTVSS VL: DIQMTQSPASLSASVGETVTITCRASENIYSYLAWYQQKQGKSPQLLVYNGKTLAEGVSSRFSGSGSGTQFSLKINSLQPEDFGSYYCQNHYGVPWTFGGGTKLEIKR | – | binds
anti-Glypican-1 antibody clone K090-01a016 (antibody, mouse IgG2a, kappa, V domains shown, Selected as scFv on phage) VH: QVHLQQSGPELVKPGASVKISCKASGYTFTDYYINWVKQKPGQGLEWIGYIDPYNDGSKYNEKFKGKATLTSDKSSSTAYMELSSLTSEDSAVYYCARTPYYSFYSYGFYFDYWGQGTTLTVSS VL: DIVLTQSPASLAVSLGQRATISCRASKSVSTSSYSYMHWYQQKPGQPPKLLIKYASYLESGVPARFSGSGSGTDFTLNIHPVEEEDAATYYCQHSREFPLTFGAGTKLELKR | – | binds
anti-Glypican-1 antibody clone K090-02a035 (antibody, mouse IgG2a, kappa, V domains shown, Selected as scFv on phage) VH: QVQLQQSGAELVKPGASVKLSCKTSGYTFTSYWMHWVKQRPGQGLEWIGNIDPSDSETHYNQKFKDKATLTVDKSSSTAYMQLSGLTSEDSAVYYCARNLGYWGQGTSVTVSS VL: DIKMTQSPLSLPVSLGDQASISCRSSQSLVHSNGNTYLHWYLQKPGQSPKLLIYKVSNRFSGVPDRFSGSGSGTDFTLKISRVEAEDLGVYFCSQSTHVPYTFGGGTKLEIKR | – | binds
anti-Glypican-1 antibody clone K090-01a030 (antibody, mouse IgG2a, kappa, V domains shown, Selected as scFv on phage) VH: QVQLQQSGAELVRPGTSVKMSCKAAGYTFTNYWIGWVKQRPGHGLEWIGDIYPGGGYTHYNEKFKGKATLTADTSSSTAYMQLSSLTSEDSAIYYCARERVYYDGSRYFDVWGAGTTVTVSS VL: DIKMTQSPKFLPVSAGDRVTMTCKASQSVGNNVAWYQQKPGQSPKLLIYYASNRYTGVPDRFTGSGSGTDFTFTISSVQVEDLAVYFCQQHYSSPWTFGGGTKLEIKR | – | binds
anti-Glypican-1 antibody clone K090-01a017 (antibody, mouse IgG2a, kappa, V domains shown, Selected as scFv on phage) VH: EVQLQQSGGELVRPGTSVKMSCKAAGYTFTNYWIGWVKQRPGHGLEWIGDLYPGGGYTHYNEKFKGKATLTADTSSSTAYMQLSSLTSEDSAIYYCARERVYFDGSRYFDVWGAGTTVTVSS VL: SIVMTQTPKFLPVSAGDRVTMTCKASQSVGNNVAWYQQKPGQSPKLLIYYASNRYTGVPDRFTGSGSGTDFTFTISSVQVEDLAVYFCQQHYSSPWTFGGGTKLEIKR | – | binds
anti-Glypican-1 antibody clone K090-01a026 (antibody, mouse IgG2a, kappa, V domains shown, Selected as scFv on phage) VH: QVHLQQSGAELVRPGTSVKMSCKAAGYTFTNYWIGWVKQRPGHGLEWIGDIYPGGGYTHYNEKFKGKATLTADTSSSTAYMQLSSLTSEDSAIYYCARERVYYDGSRFFDVWGAGTTVTVSS VL: DIVMSQSPKFLPVSAGDRVTMTCKASQSVGNNVAWYQQKPGQSPKLLIYYASNRYTGVPDRFTGSGSGTDFTFTISSVQVEDLAVYFCQQHYSSPWTFGGGTKLEIKR | – | binds
anti-Glypican-1 antibody clone K090-02a014 (antibody, mouse IgG2a, kappa, V domains shown, Selected as scFv on phage) VH: EVQLQQSGPELVKPGASVKISCKASGYSFTGYYIHWVKQSPEKSLEWIGEINPSTGDITYNQKFKAKATLTVDKSSSTAYMQLKSLTSDDSAVYYCARERNYDRFAYWGQGTLVTVSS VL: SIVMTQTPALMAASPGEKVTITCSVSSSISSSNLHWYQQKSETSPKPWIYGTSNLASGVPVRFSGSGSGTSYSLTISSMEAEDAATYYCQQWSSYPLTFGAGTKLEIKR | – | binds
anti-Glypican-1 antibody clone K090-02a034 (antibody, mouse IgG2a, kappa, V domains shown, Selected as scFv on phage) VH: EVQLQQSGPELVKPGASVKISCKASGYSFTGYYMHWVKQSPEKSLEWIGEINPSTGDTTYNQKFKAKATLTVDKSSSTAYIQLKSLTSEDSAVYYCARERNYDRFAYWGQGTLVTVSS VL: QIVLSQSPAIMSASPGEKVTMTCSASSSVSYMYWYQQKPGSSPRLLIYDTSNLASGVPVRFSGSGSGTSYSLTISRMEAEDAATYYCQQWSSYPLTFGAGTKLELKR | – | binds
anti-Glypican-1 antibody clone K090-01a042 (antibody, mouse IgG2a, kappa, V domains shown, Selected as scFv on phage) VH: QVQLQQPGAELAKPGASVKMSCKASGYTFTRYWMHWVKQRPGQGLEWIGYINPSSGYTEYNQKFKDKATLTADKSSSTAYMQLSSLTSEDSAVYYCVRLGDYSYYFDYWGQGTTLTVSS VL: DVVMTQTPLSLPVSLGDQASISCRSSQSIVHSNGNTYLEWYLQKPGQSPKLLIYKVSNRFSGVPDRFSGSGSGTDFTLKISRVEAEDLGVYYCFQGSHVPWTFGGGTKLELKR | – | binds
anti-Glypican-1 antibody clone K090-01a007 (antibody, mouse IgG2a, kappa, V domains shown, Selected as scFv on phage) VH: QVHLQQSGAELVKPGASVKLSCKASGYTFTSYWMHWVKQRPGQGLEWIGNIDPYDSETHYNQKFKDKATLTVDKSSSTAYMQLSSLTSEDSAVYYCARDSNWGYFDYWGQGTTLTVSS VL: DVVMTQTPLSLPVSLGDQASISCRSSQSLVHSNGNTYLHWYLQKPGQSPKLLIYKVSNRFSGVPDRFSGSGSGTDFTLKISRVEAEDLGVYFCSQSTHVPWTFGGGTKLELKR | – | binds
